From patent publication US20260166130A1, “PEPTIDE COMPOSITION HAVING ANGIOGENIC ACTIVITY, AND PHARMACEUTICAL COMPOSITION USING SAME AND COSMETIC COMPOSITION USING SAME” (LABTOMEDI CRO CO.,LTD., priority 2022, published 2026)

Tested on: HUVECs
Assay: Blood vessel (tube) formation assay on Matrigel
Assay type: cell-based, human
Conditions: 4 hours, vs. control
Experimental: HUVECs (20,000 cells/well) were seed on a layer of previously polymerized Matrigel and treated with or without the first peptide and the second peptide. The Matrigel culture was incubated at 37° C. After 4 hours, changes in cell morphology were captured using a phase-contrast microscope (×40). Each sample was assayed in duplicate, and independent experiments were repeated three times. *P<0.05, **P,0.01, ***P<0.001 (vs. control).
HUVECs (20,000 cells/well) were seeded on a layer of previously polymerized Matrigel, treated with the visfatin-derived peptides, and then incubated in a 5% CO2 incubator at 37° C. for 4 hours. Then, changes in the cell morphology were observed and photographed using a phase-contrast microscope at 40× magnification. Each sample was assayed in duplicate, and independent experiments were repeated three times. Angiogenesis was analyzed with ImageJ software using an angiogenesis analyzer (Bethesda, MD, USA).

B1: visfatin (protein, UniProt P43490 1-491, looked up)
Nicotinamide …: MNPAAEAEFNILLATDSYKVTHYKQYPPNTSKVYSYFECREKKTENSKLRKVKYEETVFYGLQYILNKYLKGKVVTKEKIQEAKDVYKEHFQDDVFNEKGWNYILEKYDGHLPIEIKAVPEGFVIPRGNVLFTVENTDPECYWLTNWIETILVQSWYPITVATNSREQKKILAKYLLETSGNLDGLEYKLHDFGYRGVSSQETAGIGASAHLVNFKGTDTVAGLALIKKYYGTKDPVPGYSVPAAEHSTITAWGKDHEKDAFEHIVTQFSSVPVSVVSDSYDIYNACEKIWGEDLRHLIVSRSTQAPLIIRPDSGNPLDTVLKVLEILGKKFPVTENSKGYKLLPPYLRVIQGDGVDINTLQEIVEGMKQKMWSIENIAFGSGGGLLQKLTRDLLNCSFKCSYVVTNGLGINVFKDPVADPNKRSKKGRLSLHRTPAGNFVTLEEGKGDLEEYGQDLLHTVFKNGKVTKSYSFDEIRKNAQLNIELEAAHH
notes: 55 kDa cytokine secreted from adipocytes, used as positive control
number of master junctions (tube formation) (second peptide except at the 2.0 μM concentration): significantly increased | number of meshes (tube formation) (positive controls): not significantly changed
